Data from patent publication US20250171562A1.

B1: CIgG4B1A1(G4S)2 (Fc fusion)
chain 1: GPPCPPCPAPEFLGGPSVFLFPPKPKDTLMISRTPEVTCVVVDVSQEDPEVQFNWYVDGVEVHNAKTKPREEQFNSTYRVVSVLTVLHQDWLNGKEYKCKVSNKGLPSSIEKTISKAKGQPREPQVYTLPPCQEEMTKNQVSLWCLVKGFYPSDIAVEWESNGQPENNYKTTPPVLDSDGSFFLYSRLTVDKSRWQEGNVFSCSVMHEALHNHYTQKSLSLSLGKGGGGSGGGGSQVQLQESGGGLVQTGGSLRLSCAVHGRTFSNTGMGWFRQAPGNERQFVAIISPSGTSTYYADSVKGRFTISRDPAKNTVYLQMNSLKMDDTAVYYCAASYGSNWSTLRHQRRNEYDAWGQGTQVAVS
chain 2: GPPCPPCPAPEFLGGPSVFLFPPKPKDTLMISRTPEVTCVVVDVSQEDPEVQFNWYVDGVEVHNAKTKPREEQFNSTYRVVSVLTVLHQDWLNGKEYKCKVSNKGLPSSIEKTISKAKGQPREPQVCTLPPSQEEMTKNQVSLSCAVKGFYPSDIAVEWESNGQPENNYKTTPPVLDSDGSFFLVSRLTVDKSRWQEGNVFSCSVMHEALHNHYTQKSLSLSLGKGGGGSGGGGSEVQLLESGGGLVQPGGSLRLSCAASGFTFGNYDMAWVRQAPGKRPEWVSSIDTGGDITHYADSVKGRFTISRDNAKNTLYLQMNSLRPEDTAVYWCATDEEYALGPNEFDYYGQGTLVTVSS
B2: CIgG4F6A1(G4S)2 (Fc fusion)
chain 1: GPPCPPCPAPEFLGGPSVFLFPPKPKDTLMISRTPEVTCVVVDVSQEDPEVQFNWYVDGVEVHNAKTKPREEQFNSTYRVVSVLTVLHQDWLNGKEYKCKVSNKGLPSSIEKTISKAKGQPREPQVYTLPPCQEEMTKNQVSLWCLVKGFYPSDIAVEWESNGQPENNYKTTPPVLDSDGSFFLYSRLTVDKSRWQEGNVFSCSVMHEALHNHYTQKSLSLSLGKGGGGSGGGGSDVQLQESGGGLVQAGGSLRLSCAASGLTFGSYDMGWYRQAPGKQRELVGRIRNDGITYYADSVKGRFTMSRDNAKNTVYLQMNSLKPEDTAVYYCAADGTGLGHYDYWGQGTQVTVS
chain 2: GPPCPPCPAPEFLGGPSVFLFPPKPKDTLMISRTPEVTCVVVDVSQEDPEVQFNWYVDGVEVHNAKTKPREEQFNSTYRVVSVLTVLHQDWLNGKEYKCKVSNKGLPSSIEKTISKAKGQPREPQVCTLPPSQEEMTKNQVSLSCAVKGFYPSDIAVEWESNGQPENNYKTTPPVLDSDGSFFLVSRLTVDKSRWQEGNVFSCSVMHEALHNHYTQKSLSLSLGKGGGGSGGGGSEVQLLESGGGLVQPGGSLRLSCAASGFTFGNYDMAWVRQAPGKRPEWVSSIDTGGDITHYADSVKGRFTISRDNAKNTLYLQMNSLRPEDTAVYWCATDEEYALGPNEFDYYGQGTLVTVSS
B3: CIgG4F6A1(G4S)3 (Fc fusion)
chain 1: GPPCPPCPAPEFLGGPSVFLFPPKPKDTLMISRTPEVTCVVVDVSQEDPEVQFNWYVDGVEVHNAKTKPREEQFNSTYRVVSVLTVLHQDWLNGKEYKCKVSNKGLPSSIEKTISKAKGQPREPQVYTLPPCQEEMTKNQVSLWCLVKGFYPSDIAVEWESNGQPENNYKTTPPVLDSDGSFFLYSRLTVDKSRWQEGNVFSCSVMHEALHNHYTQKSLSLSLGKGGGGSGGGGSGGGGSDVQLQESGGGLVQAGGSLRLSCAASGLTFGSYDMGWYRQAPGKQRELVGRIRNDGITYYADSVKGRFTMSRDNAKNTVYLQMNSLKPEDTAVYYCAADGTGLGHYDYWGQGTQVTVS
chain 2: GPPCPPCPAPEFLGGPSVFLFPPKPKDTLMISRTPEVTCVVVDVSQEDPEVQFNWYVDGVEVHNAKTKPREEQFNSTYRVVSVLTVLHQDWLNGKEYKCKVSNKGLPSSIEKTISKAKGQPREPQVCTLPPSQEEMTKNQVSLSCAVKGFYPSDIAVEWESNGQPENNYKTTPPVLDSDGSFFLVSRLTVDKSRWQEGNVFSCSVMHEALHNHYTQKSLSLSLGKGGGGSGGGGSGGGGSEVQLLESGGGLVQPGGSLRLSCAASGFTFGNYDMAWVRQAPGKRPEWVSSIDTGGDITHYADSVKGRFTISRDNAKNTLYLQMNSLRPEDTAVYWCATDEEYALGPNEFDYYGQGTLVTVSS
B4: NIgG4B1A1(G4S)1 (Fc fusion)
chain 1: QVQLQESGGGLVQTGGSLRLSCAVHGRTFSNTGMGWFRQAPGNERQFVAIISPSGTSTYYADSVKGRFTISRDPAKNTVYLQMNSLKMDDTAVYYCAASYGSNWSTLRHQRRNEYDAWGQGTQVAVSGGGGSGPPCPPCPAPEFLGGPSVFLFPPKPKDTLMISRTPEVTCVVVDVSQEDPEVQFNWYVDGVEVHNAKTKPREEQFNSTYRVVSVLTVLHQDWLNGKEYKCKVSNKGLPSSIEKTISKAKGQPREPQVYTLPPCQEEMTKNQVSLWCLVKGFYPSDIAVEWESNGQPENNYKTTPPVLDSDGSFFLYSRLTVDKSRWQEGNVFSCSVMHEALHNHYTQKSLSLSLGK
chain 2: EVQLLESGGGLVQPGGSLRLSCAASGFTFGNYDMAWVRQAPGKRPEWVSSIDTGGDITHYADSVKGRFTISRDNAKNTLYLQMNSLRPEDTAVYWCATDEEYALGPNEFDYYGQGTLVTVSSGGGGSGPPCPPCPAPEFLGGPSVFLFPPKPKDTLMISRTPEVTCVVVDVSQEDPEVQFNWYVDGVEVHNAKTKPREEQFNSTYRVVSVLTVLHQDWLNGKEYKCKVSNKGLPSSIEKTISKAKGQPREPQVCTLPPSQEEMTKNQVSLSCAVKGFYPSDIAVEWESNGQPENNYKTTPPVLDSDGSFFLVSRLTVDKSRWQEGNVFSCSVMHEALHNHYTQKSLSLSLGK
B5: CIgG4B1A1(G4S)1 (Fc fusion)
chain 1: GPPCPPCPAPEFLGGPSVFLFPPKPKDTLMISRTPEVTCVVVDVSQEDPEVQFNWYVDGVEVHNAKTKPREEQFNSTYRVVSVLTVLHQDWLNGKEYKCKVSNKGLPSSIEKTISKAKGQPREPQVYTLPPCQEEMTKNQVSLWCLVKGFYPSDIAVEWESNGQPENNYKTTPPVLDSDGSFFLYSRLTVDKSRWQEGNVFSCSVMHEALHNHYTQKSLSLSLGKGGGGSQVQLQESGGGLVQTGGSLRLSCAVHGRTFSNTGMGWFRQAPGNERQFVAIISPSGTSTYYADSVKGRFTISRDPAKNTVYLQMNSLKMDDTAVYYCAASYGSNWSTLRHQRRNEYDAWGQGTQVAVS
chain 2: GPPCPPCPAPEFLGGPSVFLFPPKPKDTLMISRTPEVTCVVVDVSQEDPEVQFNWYVDGVEVHNAKTKPREEQFNSTYRVVSVLTVLHQDWLNGKEYKCKVSNKGLPSSIEKTISKAKGQPREPQVCTLPPSQEEMTKNQVSLSCAVKGFYPSDIAVEWESNGQPENNYKTTPPVLDSDGSFFLVSRLTVDKSRWQEGNVFSCSVMHEALHNHYTQKSLSLSLGKGGGGSEVQLLESGGGLVQPGGSLRLSCAASGFTFGNYDMAWVRQAPGKRPEWVSSIDTGGDITHYADSVKGRFTISRDNAKNTLYLQMNSLRPEDTAVYWCATDEEYALGPNEFDYYGQGTLVTVSS
B6: CIgG4F6A1(G4S)1 (Fc fusion)
chain 1: GPPCPPCPAPEFLGGPSVFLFPPKPKDTLMISRTPEVTCVVVDVSQEDPEVQFNWYVDGVEVHNAKTKPREEQFNSTYRVVSVLTVLHQDWLNGKEYKCKVSNKGLPSSIEKTISKAKGQPREPQVYTLPPCQEEMTKNQVSLWCLVKGFYPSDIAVEWESNGQPENNYKTTPPVLDSDGSFFLYSRLTVDKSRWQEGNVFSCSVMHEALHNHYTQKSLSLSLGKGGGGSDVQLQESGGGLVQAGGSLRLSCAASGLTFGSYDMGWYRQAPGKQRELVGRIRNDGITYYADSVKGRFTMSRDNAKNTVYLQMNSLKPEDTAVYYCAADGTGLGHYDYWGQGTQVTVS
chain 2: GPPCPPCPAPEFLGGPSVFLFPPKPKDTLMISRTPEVTCVVVDVSQEDPEVQFNWYVDGVEVHNAKTKPREEQFNSTYRVVSVLTVLHQDWLNGKEYKCKVSNKGLPSSIEKTISKAKGQPREPQVCTLPPSQEEMTKNQVSLSCAVKGFYPSDIAVEWESNGQPENNYKTTPPVLDSDGSFFLVSRLTVDKSRWQEGNVFSCSVMHEALHNHYTQKSLSLSLGKGGGGSEVQLLESGGGLVQPGGSLRLSCAASGFTFGNYDMAWVRQAPGKRPEWVSSIDTGGDITHYADSVKGRFTISRDNAKNTLYLQMNSLRPEDTAVYWCATDEEYALGPNEFDYYGQGTLVTVSS
B7: CIgG4B1A1(RS) (Fc fusion)
chain 1: GPPCPPCPAPEFLGGPSVFLFPPKPKDTLMISRTPEVTCVVVDVSQEDPEVQFNWYVDGVEVHNAKTKPREEQFNSTYRVVSVLTVLHQDWLNGKEYKCKVSNKGLPSSIEKTISKAKGQPREPQVYTLPPCQEEMTKNQVSLWCLVKGFYPSDIAVEWESNGQPENNYKTTPPVLDSDGSFFLYSRLTVDKSRWQEGNVFSCSVMHEALHNHYTQKSLSLSLGKRSQVQLQESGGGLVQTGGSLRLSCAVHGRTFSNTGMGWFRQAPGNERQFVAIISPSGTSTYYADSVKGRFTISRDPAKNTVYLQMNSLKMDDTAVYYCAASYGSNWSTLRHQRRNEYDAWGQGTQVAVS
chain 2: GPPCPPCPAPEFLGGPSVFLFPPKPKDTLMISRTPEVTCVVVDVSQEDPEVQFNWYVDGVEVHNAKTKPREEQFNSTYRVVSVLTVLHQDWLNGKEYKCKVSNKGLPSSIEKTISKAKGQPREPQVCTLPPSQEEMTKNQVSLSCAVKGFYPSDIAVEWESNGQPENNYKTTPPVLDSDGSFFLVSRLTVDKSRWQEGNVFSCSVMHEALHNHYTQKSLSLSLGKRSEVQLLESGGGLVQPGGSLRLSCAASGFTFGNYDMAWVRQAPGKRPEWVSSIDTGGDITHYADSVKGRFTISRDNAKNTLYLQMNSLRPEDTAVYWCATDEEYALGPNEFDYYGQGTLVTVSS

Assays:
[1] = biological target: mixture of three Der p 2 specific recombinant human IgE clones H10, H12, P4E (human) (UniProt P01854); test: RBL-SX38 IgE displacement, FACS
[2] = biological target: IgE on basophils of allergic donors (human) (UniProt P01854); test: displacement of IgE from FcεRI on basophils, whole blood of an allergic donor, flow cytometry of surface IgE [panel C]
[3] = biological target: IgE on basophils of allergic donors (human) (UniProt P01854); test: displacement of IgE from FcεRI on basophils, whole blood of an allergic donor, flow cytometry of surface IgE [panel B]

IgE on basophils of allergic donors (human), sequence (P01854 1-428): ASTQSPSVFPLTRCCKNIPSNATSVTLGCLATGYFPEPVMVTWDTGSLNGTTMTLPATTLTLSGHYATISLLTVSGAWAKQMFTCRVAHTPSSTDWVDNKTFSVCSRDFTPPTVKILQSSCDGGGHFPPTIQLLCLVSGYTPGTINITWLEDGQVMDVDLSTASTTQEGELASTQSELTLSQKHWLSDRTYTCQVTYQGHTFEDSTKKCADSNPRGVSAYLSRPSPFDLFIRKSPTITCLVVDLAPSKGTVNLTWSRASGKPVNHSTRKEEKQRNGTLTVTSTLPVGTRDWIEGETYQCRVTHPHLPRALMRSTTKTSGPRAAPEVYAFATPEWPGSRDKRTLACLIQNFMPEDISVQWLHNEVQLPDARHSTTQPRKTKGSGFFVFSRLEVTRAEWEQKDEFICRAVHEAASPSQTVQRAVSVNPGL
mixture of three Der p 2 specific recombinant human IgE clones H10, H12, P4E (human), sequence (P01854 other isoform, or with tags, fused parts or gaps): as the sequence (P01854 1-428) above, with L428K counted along it

Binder	EC50 [1] [nM]	Max effect/effect 1 µM [1] [%]	EC50 (read off the curve) [2] [nM]	EC50 (read off the curve) [3] [nM]
B1	19.5	99	3	4
B2	16.6	98	–	–
B3	7.9	90	–	–
B4	3	99	3	4
B5	22.4	99	4	4
B6	59.9	95	–	–
B7	84.9	92	20	10
